The record followed here is patent US20090062179A1 (University of Texas, published 2009).

In this assay the target is T1, VP16-ERα chimera (full-length ERα fused to the Herpes simplex virus VP16 transactivation domain) (Herpes simplex virus, UniProt P03372 1-595).
T1 construct: Expressed in HeLa cells for the mammalian two-hybrid assay; also called pACT-ERα
T1 sequence: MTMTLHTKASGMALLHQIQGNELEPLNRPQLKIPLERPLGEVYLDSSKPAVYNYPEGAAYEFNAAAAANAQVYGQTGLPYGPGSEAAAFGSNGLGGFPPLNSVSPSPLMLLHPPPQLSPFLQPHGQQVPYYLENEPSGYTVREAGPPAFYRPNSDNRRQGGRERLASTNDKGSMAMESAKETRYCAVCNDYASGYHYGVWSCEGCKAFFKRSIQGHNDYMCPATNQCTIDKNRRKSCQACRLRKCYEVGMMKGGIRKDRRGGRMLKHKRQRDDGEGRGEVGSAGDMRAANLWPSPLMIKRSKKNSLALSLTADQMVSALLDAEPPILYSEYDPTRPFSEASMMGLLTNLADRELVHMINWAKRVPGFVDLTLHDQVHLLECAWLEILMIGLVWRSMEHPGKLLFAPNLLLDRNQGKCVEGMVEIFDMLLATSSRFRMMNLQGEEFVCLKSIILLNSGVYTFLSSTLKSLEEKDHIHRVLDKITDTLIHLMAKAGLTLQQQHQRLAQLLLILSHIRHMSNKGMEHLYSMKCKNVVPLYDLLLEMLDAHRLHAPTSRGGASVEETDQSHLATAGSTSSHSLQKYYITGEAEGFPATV
Kind of assay: mammalian two-hybrid (luciferase reporter) in HeLa cells, hormone-free. On the technique in general: Reporter assays use an easily measured gene product as a stand-in for the process of interest.

B1: GAL4-DBC-1-C terminal chimera (amino acids 479-923) (other, yeast;human, UniProt P04386 1-147, looked up)
chain: MKLLSSIEQACDICRLKKLKCSKEKPKCAKCLKNNWECRYSPKTKRSPLTRAHLTEVESRLERLEQLFLLIFPREDLDMILKMDSLQDIKALLTGLFVQDNVNKDAVTDRLASVETDMPLTLRQHRISATSSSEESSNKGQRQLTVSRRNAETPEATTQQETDTDLPEAPPPPLEPAVIARPGCVNLSLHGIVEDRRPKERISFEVMVLAELFLEMLQRDFGYRVYKMLLSLPEKVVSPPEPEKEEAAKEEATKEEEAIKEEVVKEPKDEAQNEGPATESEAPLKEDGLLPKPLSSGGEEEEKPRGEASEDLCEMALDPELLLLRDDGEEEFAGAKLEDSEVRSVASNQSEMEFSSLQDMPKELDPSAVLPLDCLLAFVFFDANWCGYLHRRDLERILLTLGIRLSAEQAKQLVSRVVTQNICQYRSLQYSRQEGLDGGLPEEVLFGNLDLLPPPGKSTKPGAAPTEHKALVSHNGSLINVGSLLQRAEQQDSGRLYLENKIHTLELKLEESHNRFSATEVTNKTLAAEMQELRVRLAEAEETARTAERQKSQLQRLLQELRRRLTPLQLEIQRVVEKADSWVEKEEPAPSN
notes: Expressed in HeLa cells for the mammalian two-hybrid assay
Regarding B1, the binding result is listed as “no binding”.
